Laboratory results reported in the supplement of paper PMC9732359.
± gives the uncertainty stated by the source.

Experiment: protein stability index of a GFP-peptide fusion (yeast GPS) (PSI 1-4); higher = more stable; sorted into four equal gates, so the index is relative within each strain
Outline: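 Plasmids isolated from each sorting gate were PCR-amplified and Illumina-sequenced, and barcodes assigned the reads to strains. The gates, four of equal size, were set by GFP/Cherry fluorescence ratio on mid-log cultures in leucine-free medium. These cultures were yeast carrying a pooled library of tiled 17-residue yeast protein peptides fused downstream of GFP on a plasmid that also expresses Cherry. The protein stability index is the sum of every gate's read frequency times its gate number.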

Sequence | protein stability index (doa10∆) | protein stability index (pdr5∆) | protein stability index (san1∆) | protein stability index (ubr1∆)
QLASQLVDLKKELAELK [RPL35A] | 3.37 ± 0.26 | 3.68 ± 0.27 | 3.21 ± 0.066 | 3.35 ± 0.078
QLAVKIINKVLDYQETY [YJL039C/NUP192] | 1.94 ± 0.11 | 2.73 ± 0.096 | 2.51 ± 0.086 | –
QLCQITCQILESGEDEA [RRP46] | 2.25 ± 0.19 | 1.98 ± 0.082 | 1.72 ± 0.09 | 1.99 ± 0.061
QLDDEDFDLLNKTLTFE [FAS1] | 3.38 ± 0.12 | 3.58 ± 0.098 | 3.36 ± 0.069 | 3.16 ± 0.085
QLNSRAVAVVVDPIQSV [RPN11] | 1.27 ± 0.067 | 1.65 ± 0.076 | 1.43 ± 0.12 | 1.48 ± 0.051
QLSKAAKAAAALAGGKK [RPS25A] | 1.7 ± 0.057 | 1.86 ± 0.067 | 1.82 ± 0.08 | 1.77 ± 0.047
QLSLDASKTNLRLTDVT [GAL11] | 2.85 ± 0.058 | 3.23 ± 0.066 | 3.06 ± 0.047 | 3.16 ± 0.047
QLTEFWTELCQREFKEI [NNF1] | 2.98 ± 0.21 | 3.41 ± 0.16 | 3.06 ± 0.07 | 3.09 ± 0.069
QLVIQQGTGKKTASLGN [ISW2] | 3.2 ± 0.24 | 2.83 ± 0.21 | 3.23 ± 0.21 | 3.41 ± 0.24
QMMARMAQTATQQQPGA [SRP54] | 2.34 ± 0.059 | 2.36 ± 0.067 | 2.35 ± 0.067 | 2.27 ± 0.044
QMMQQAQQKLKQNPGLM [SRP54] | 2.83 ± 0.08 | 3.07 ± 0.082 | 3.12 ± 0.055 | 3.119 ± 0.031
QNDFLFSVGESLSVVAG [ECM29] | 2.61 ± 0.065 | 3.08 ± 0.12 | 2.92 ± 0.11 | 2.71 ± 0.061
QNEMIDAIAVTKGHGFE [RPL3] | 3.08 ± 0.11 | 3.21 ± 0.1 | 3.35 ± 0.1 | 3.34 ± 0.076
QNENLPSDKSDSMVDKE [SSN2] | 3.07 ± 0.13 | 2.64 ± 0.096 | 2.73 ± 0.091 | 2.57 ± 0.077
QNISPVYSVDPLEKITD [PRP8] | 2.94 ± 0.083 | 2.9 ± 0.084 | 2.86 ± 0.054 | 2.85 ± 0.079
QNLRKELLIYKKSQCKK [YIL149C/MLP2] | 1.75 ± 0.078 | 2.35 ± 0.086 | 1.84 ± 0.086 | 1.63 ± 0.068
QNPENLLSEKILQYFEK [SIR3] | 2.83 ± 0.079 | 2.81 ± 0.086 | 2.8 ± 0.054 | 3.2 ± 0.072
QPAKEKGVTEKDAVDYS [RRP6] | 3.2 ± 0.21 | 3.15 ± 0.17 | 3.27 ± 0.091 | 3.42 ± 0.062
QPKPLFSFGKSDAAKEP [YOR098C/NUP1] | 2.52 ± 0.07 | 2.6 ± 0.039 | 2.44 ± 0.073 | 2.72 ± 0.085
QPSDVKPTSHKQLQQPK [SIR4] | 2.98 ± 0.096 | 3.15 ± 0.088 | 2.99 ± 0.084 | 3.06 ± 0.076
QPWQMDTNNEADLMALE [SNF12] | 2.59 ± 0.068 | 3.25 ± 0.076 | 2.86 ± 0.054 | 3.2 ± 0.036
QQAQARLQQGRRLPMTM [SNF2] | 3.1 ± 0.065 | 3.15 ± 0.055 | 3.24 ± 0.035 | 3.22 ± 0.048
QQNPKFLQSQRQQQQRS [SWI1] | 2.47 ± 0.06 | 1.94 ± 0.063 | 2.67 ± 0.057 | 2.05 ± 0.067
QQNYSKVLLPSINISCV [SWI1] | 1.85 ± 0.067 | 1.71 ± 0.059 | 1.87 ± 0.16 | 2.53 ± 0.054
QQPTASDNIASLQYINI [SMD1] | 3.27 ± 0.09 | 3.27 ± 0.098 | 3.13 ± 0.12 | 3.24 ± 0.078
QQQDQPEQSEQPEQHQD [RPN10] | 3 ± 0.052 | 3.12 ± 0.053 | 2.85 ± 0.046 | 3.24 ± 0.059
QQQGQIPQSQQVPQVRS [SNF5] | 2.37 ± 0.036 | 2.73 ± 0.042 | 2.45 ± 0.063 | 2.36 ± 0.048

Sequence | protein stability index (doa10∆) | protein stability index (pdr5∆) | protein stability index (san1∆) | protein stability index (ubr1∆)
QQQMANNNGNPGTTSTG [GAL11] | 3.13 ± 0.11 | 3.44 ± 0.065 | 3.26 ± 0.049 | 3.31 ± 0.043
QQQNASSKLYQMQQQQQ [GAL11] | 1.76 ± 0.091 | 1.66 ± 0.073 | 1.5 ± 0.13 | 1.78 ± 0.064
QQQQQNQQQQNQQPQQQ [SWI1] | 2.99 ± 0.041 | 3.06 ± 0.043 | 2.88 ± 0.032 | 2.85 ± 0.038
QQQQQQQNPKFLQSQRQ [SWI1] | 2.84 ± 0.048 | 2.82 ± 0.052 | 2.79 ± 0.045 | 3.25 ± 0.064
QQQQTSPPPQTHQSPPP [SNF5] | 2.883 ± 0.018 | 2.878 ± 0.016 | 2.88 ± 0.016 | 2.901 ± 0.014
QQRGITYLNEVLEKDAA [YGR119C/NUP57] | 3.16 ± 0.093 | 3.27 ± 0.079 | 3.33 ± 0.061 | 3.13 ± 0.09
QRDAEISQPKSMSGRIS [BRR2] | 3.22 ± 0.058 | 3.3 ± 0.055 | 3.23 ± 0.062 | 3.18 ± 0.051
QRDFRKHGAVHMSTYLK [RPL21B] | 2.65 ± 0.048 | 2.42 ± 0.042 | 2.48 ± 0.054 | 2.8 ± 0.038
QRETMKERKLRENIAML [SMC1] | 3.42 ± 0.24 | 3.01 ± 0.19 | 3.04 ± 0.12 | 3.42 ± 0.066
QRHIAVGKQIVNIPSFM [RPS9A] | 2.48 ± 0.056 | 2.74 ± 0.067 | 2.89 ± 0.082 | 2.8 ± 0.065
QRIIADLSADKPTSPFI [SRB8] | 2.78 ± 0.041 | 2.81 ± 0.054 | 2.82 ± 0.043 | 2.94 ± 0.048
QRQERLRQQQQQQDQPE [RPN10] | 3.34 ± 0.098 | 2.88 ± 0.064 | 2.86 ± 0.088 | 3.22 ± 0.056
QRSNISTAIKSLVALGI [CDC53] | 1.86 ± 0.047 | 2.82 ± 0.054 | 2.82 ± 0.049 | 2.48 ± 0.037
QRVCLRSDSYMLHKVLE [RPT6] | 2.84 ± 0.084 | 2.95 ± 0.073 | 2.81 ± 0.067 | 2.84 ± 0.047
QSESRQKRQLHDISKTE [SNU114] | 3 ± 0.096 | 2.87 ± 0.071 | 3.13 ± 0.073 | 3.04 ± 0.046
QSKKLIEEKLSSFSKKT [YIL149C/MLP2] | 2.9 ± 0.056 | 3 ± 0.049 | 2.98 ± 0.053 | 3.02 ± 0.045
QSKLKDVVEYLDKVINK [RPN8] | 2.73 ± 0.094 | 2.32 ± 0.055 | 2.63 ± 0.073 | 2.55 ± 0.046
QSLDTIGGSDAAFEKRY [RPO21] | 3.25 ± 0.095 | 3.38 ± 0.074 | 3.37 ± 0.049 | 3.25 ± 0.06
QSVYNDEKLKTEKLKND [SRB8] | – | 3.74 ± 0.21 | 3.21 ± 0.18 | 3.36 ± 0.22
QSYGGRPYGVGLLIIGY [PRE5] | 2.96 ± 0.078 | 3.01 ± 0.067 | 2.83 ± 0.07 | 2.56 ± 0.071
QTANEKHITVRLTAKRL [SRP14] | 2.75 ± 0.1 | 2.91 ± 0.09 | 2.94 ± 0.082 | 2.92 ± 0.065
QTAVTCESCSTVLCTPT [RPS27B] | 1.89 ± 0.055 | 2.29 ± 0.058 | 2.06 ± 0.071 | 2.09 ± 0.066
QTLLQRSEDPAGLGKTN [YGR119C/NUP57] | 3.31 ± 0.084 | 3.12 ± 0.11 | 3.27 ± 0.078 | 3.39 ± 0.091
QTLYTGDKVVVTIWYRA [SSN3] | 1.22 ± 0.058 | 1.32 ± 0.069 | 1.25 ± 0.13 | 1.47 ± 0.047
QVVGPFHTSFSAVVGPN [SMC4] | 2.53 ± 0.063 | 2.39 ± 0.055 | 2.78 ± 0.055 | 2.73 ± 0.037
QWSMVAQRLQISDYQQL [SWI1] | 1.53 ± 0.057 | 1.65 ± 0.054 | 1.59 ± 0.12 | 1.41 ± 0.054
